Patent US7026282B1, “Peptide antagonists of the human urokinase receptor and method for selecting them” (Cancerforskningsfonden AF 1989 (Fonden Til Fremme AF …, priority 1998, dated 2006)
Entries after “also recorded” stand apart in the source; their conditions may differ. Starred links: 1 amine or outer side, 2 acyl side, 3 side chain; linkers in the order of their positions; H or OH if unused. Non-standard residues stand in square brackets, D forms with d. No end group written: not given here. DMB = N-(2,3-dimethoxybenzyl)glycine, COc1cccc(CN(CC(=O)[*:2])[*:1])c1OC; Gly(N(CH2)2(3-indolyl)) = O=C(O)CNCCc1c[nH]c2ccccc12; 1Nal = N[C@@H](Cc1cccc2ccccc12)C(=O)O; 2Nal = N[C@@H](Cc1ccc2ccccc2c1)C(=O)O; AMN = N-(methylnaphthalyl)glycine; Cha = N[C@@H](CC1CCCCC1)C(=O)O; Nme = COCCNCC(=O)O; βAla = NCCC(=O)O

What was measured:
[1] = target: soluble recombinant variant of human uPAR (suPAR) (human) (UniProt Q03405); test: SPR (Biacore), ligand over immobilised neuramimidase-treated human suPAR
[2] = target: T1, neuramimidase-treated human suPAR (soluble recombinant uPAR) (Homo sapiens, UniProt Q03405); test: Biacore Binding Assay (surface plasmon resonance), ligand binding to immobilised suPAR; details: for kdiss (dissociation rate constant, off-rate): Biacore, 5° C., immobilised suPAR; for Relative kdiss: relative to the Growth Factor Domain of uPA (GFD = 1.0); for dissociation constant compared with other peptides: peptomer analogues; for human uPAR binding after introduction of spacing residues: spacer between D-arginine and L-tyrosine
T1 construct: A soluble recombinant variant of human uPAR (suPAR) was expressed in Chinese hamster ovary (dhfr) cells; made in house; host or cells: Chinese hamster ovary (dhfr) cells
Experimental: Association rate constants (kass), dissociation rate constants (kdiss) and equilibrium binding constants (kd) for various synthetic peptides and receptor binding derivatives of human uPA were determined by surface plasmon resonance (R. Karlsson et al. (1991) J. Immunol. Meths. 145:229–240) using a BIAcore2000™ instrument (Pharmacia Biosensor, Uppsala, Sweden). Due to the low isoelectric point of uPAR (pI≈4.5) terminal sialic acid residues were removed from its N-linked carbohydrates to facilitate chemical immobilisation on the sensor chip. This was accomplished by incubating purified suPAR (1 mg/ml in 50 mM phosphate, 150 mM NaCl, pH 7.4) with 5 μg/ml neuramimidase for 4 hours at 37° C. […] Coupling of the neuramimidase-treated suPAR to a BIAcore sensor chip was achieved by injection of 20 μg/ml suPAR in 10 mM sodium acetate pH 5.0 for 6 minutes at a flow rate of […] per minute using a carboxymethylated dextran matrix (CM5 sensor chip) preactivated with N-hydroxysuccinimide/N-ethyl-N′-[3-([…])propyl]carbodiimide according to the manufacturer's recommendations. Approximately 1,500–2,000 resonance units (RU) were immobilised by this procedure (corresponding to 1–2 ng suPAR/mrn^2).
Sensorgrams (RU versus time) were recorded (FIG. 2) at a flow rate of 10 μl per min at 5° C. using several different concentrations of the ligand (synthetic peptides, uPA, the amino-terminal fragment (ATF) of uPA, or the growth factor domain (GFD) of uPA) in the range of 10 to 1000 nM in running buffer (10 mM HEPES, 150 mM NaCl, 3 mM EDTA (pH 7.4) including 0.005% surfactant P-20). Stock solutions of peptides from combinatorial chemistry were made in DMSO (10 mg peptide/ml DMSO). The sensor chip was regenerated at the end of each run by injection of 0.1 M acetic acid, 0.5 M NaCl. Data obtained from parallel mock coupled flow cells (subjected to the coupling procedure in the presence of buffer only) served as blank sensorgrams for subtraction of changes in bulk refractive index. The sensorgrams obtained were analysed by non-linear least squares fitting using BIAevaluation 2.0 software (Pharmacia Biosensor, Uppsala, Sweden) assuming single-site association and dissociation models.
Purified human suPAR (1 mg/ml in 50 mM phosphate, 150 mM NaCl, pH 7.4) was incubated with 5 μg/ml neuramimidase for 4 hours at 37° C.
In order to couple the neuramimidase-treated suPAR to a BIAcore sensor chip, 20 μg/ml suPAR in 10 mM sodium acetate (pH 5.0) was injected for 6 minutes at a flow rate of 5 μl per minute using a carboxymethylated dextran matrix (CM5 sensor chip), thereby immobilising approximately 1,500–2,000 resonance units (RU), which correspond to 1–2 ng suPAR/mm^2. The CM5 sensor chip was preactivated with N-hydroxysuccinimide/N-ethyl-N′-[3-([…])propyl]carbodiimide in accordance with the manufacturer's recommendations.
Surface plasmon resonance sensorgrams (RU versus time) were recorded at a flow rate of 10 μl per min at 5° C. using several different concentrations of the ligand (i.e. the relevant peptide or GFD) in the range from 10 to 1000 nM in running buffer (10 mM HEPES, 150 mM NaCl, 3 mM EDTA (pH 7.4) including 0.005% surfactant P-20).
The sensor chip was regenerated at the end of each run by injection of 0.1 M acetic acid, 0.5 M NaCl.
Data from parallel mock coupled flow cells (subjected to the coupling procedure in the presence of buffer only) served as blank sensorgrams for subtraction of changes in bulk refractive index.
The obtained sensorgrams were analysed by non-linear least squares fitting using BIAevaluation 2.0 software (Pharmacia Biosensor, Uppsala, Sweden) assuming single-site ssociation and dissociation models.

soluble recombinant variant of human uPAR (suPAR) (human), sequence (Q03405 23-299, change not shown): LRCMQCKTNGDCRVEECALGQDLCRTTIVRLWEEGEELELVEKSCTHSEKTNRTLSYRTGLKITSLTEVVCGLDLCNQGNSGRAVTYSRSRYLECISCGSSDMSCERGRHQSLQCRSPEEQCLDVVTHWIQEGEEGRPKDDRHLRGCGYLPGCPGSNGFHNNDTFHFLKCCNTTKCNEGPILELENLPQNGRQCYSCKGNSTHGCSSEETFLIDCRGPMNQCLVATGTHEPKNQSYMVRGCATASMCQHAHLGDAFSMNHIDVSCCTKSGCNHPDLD
T1 sequence (Q03405 23-305 limits assumed): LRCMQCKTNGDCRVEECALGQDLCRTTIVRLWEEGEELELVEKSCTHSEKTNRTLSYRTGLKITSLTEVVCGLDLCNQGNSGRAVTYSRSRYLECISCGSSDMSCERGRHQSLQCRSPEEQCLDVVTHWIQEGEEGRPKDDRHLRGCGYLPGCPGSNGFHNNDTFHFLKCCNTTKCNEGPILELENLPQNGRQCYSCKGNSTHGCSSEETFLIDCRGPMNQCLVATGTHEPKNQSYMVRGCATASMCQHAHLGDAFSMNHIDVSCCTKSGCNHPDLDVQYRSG

| Molecule | Relative kdiss (relative to GFD) [1] | koff [1] [s⁻¹] | kdiss (dissociation rate constant, off-rate) [2] | Relative kdiss [2] | dissociation constant compared with other peptides [2] | human uPAR binding after introduction of spacing residues [2] |
| --- | --- | --- | --- | --- | --- | --- |
| AE100 (peptide) | 4 | 0.00056 | – | – | – | – |
| ATF: amino-terminal-fragment (ATF) of human uPA | – | – | 0.00012 s⁻¹ | 0.86 | – | – |
| D-Cha-F-s-r-Cha-L-W-l (D[Cha]F[dS][dR][Cha]LW[dL]) [AE132] | – | – | 0.00053 s⁻¹ | 3.8 | – | – |
| D-Cha-F-s-r-DMB-f-AMN-MEA (D[Cha]F[dS][dR][DMB][dF][AMN][Nme]) [AE126, peptide-peptoid hybrid (peptomer)] | – | – | 0.00037 s⁻¹ | 2.6 | same order of magnitude as the best of the peptides; also recorded: approximating those of AE105 and AE110 | – |
| D-Cha-F-s-r-DMB-f-DMB-l (D[Cha]F[dS][dR][DMB][dF][DMB][dL]) [AE129, peptide-peptoid hybrid (peptomer)] | – | – | 0.00054 s⁻¹ | 3.9 | – | – |
| D-Cha-F-s-r-DMB-f-TRA-MEA (D[Cha]F[dS][dR][DMB][dF][Gly(N(CH2)2(3-indolyl))][Nme]) [AE124, peptide-peptoid hybrid (peptomer)] | – | – | 0.00561 s⁻¹ | 40.0 | same order of magnitude as the best of the peptides | – |
| D-Cha-F-s-r-DMLB-f-Bzl-MEA [AE125, peptide-peptoid hybrid (peptomer)] | – | – | 0.00074 s⁻¹ | 5.3 | same order of magnitude as the best of the peptides | – |
| D-Cha-F-s-r-L-L-W-h (D[Cha]F[dS][dR]LLW[dH]) [AE130] | – | – | 0.00051 s⁻¹ | 3.6 | – | – |
| D-Cha-F-s-r-MEA-DMB-f-AMN (D[Cha]F[dS][dR][Nme][DMB][dF][AMN]) [AE128, peptide-peptoid hybrid (peptomer)] | – | – | no binding | >>100 | same order of magnitude as the best of the peptides | – |
| D-Cha-F-s-r-Y-L-Nal-h (D[Cha]F[dS][dR]YLX[dH]; not fully specified (residue 8); printed as D-Cha-F-s-r-Y-L-Nal-h) [AE131] | – | – | 0.00056 s⁻¹ | 4.0 | – | – |
| DChaFSrYLWS (DXFSRYLWS; D-residues; non-natural residues; cyclised or stapled) [AE106] | – | – | 0.00263 s⁻¹ | 18.7 | – | – |
| DChaFsRYLWS (DXFSRYLWS; D-residues; non-natural residues; cyclised or stapled) [AE110] | – | – | 0.00028 s⁻¹ | 2.0 | – | – |
| DChaFsrGYLWS (D[Cha]F[dS][dR]GYLWS) [AE116] | – | – | no binding | >>100 | – | abolished the binding |
| DChaFsrβAYLWS (D[Cha]F[dS][dR][βAla]YLWS) [AE117] | – | – | no binding | >>100 | – | abolished the binding |
| DFFsrYLWS (DFF[dS][dR]YLWS) [AE112] | – | – | 0.00181 s⁻¹ | 12.9 | – | – |
| DNFsrYLWS (DNF[dS][dR]YLWS) [AE113] | – | – | no binding | >>100 | – | – |
| DchaFsrYL^1nAS [AE114] | – | – | 0.00059 s⁻¹ | 4.2 | – | – |
| LNFsQYLWS (LNF[dS]QYLWS) [AE111] | – | – | 0.00105 s⁻¹ | 7.5 | – | – |
| SLChaFsQYLWS (SL[Cha]F[dS]QYLWS) | – | – | 0.00349 s⁻¹ | 24.9 | – | – |

| Molecule | Relative kdiss (relative to GFD) [1] | koff [1] [s⁻¹] | kdiss (dissociation rate constant, off-rate) [2] | Relative kdiss [2] | dissociation constant compared with other peptides [2] | human uPAR binding after introduction of spacing residues [2] |
| --- | --- | --- | --- | --- | --- | --- |
| SLNFSQYLWS (AE68) [reference compound] | – | – | 0.0129 s⁻¹ | 92.1 | – | – |
| amino-terminal-fragment (ATF) of human uPA (from UniProt P00749 21-155) (ligand) | 0.86 | 0.00012 | – | – | – | – |
| arFhhYLWS ([dA][dR]F[dH][dH]YLWS) [AE104] | – | – | no binding | >>100 | – | – |
| dChaFSrYLWS (DXFSRYLWS; D-residues; non-natural residues; cyclised or stapled) [AE107] | – | – | 0.00884 s⁻¹ | 63.1 | – | – |
| dChaFsrYLWs (DXFSRYLWS; not fully specified; D-residues; non-natural residues; cyclised or stapled) | – | – | 0.00068 s⁻¹ | 4.9 | – | – |
| dChaFsrYL^2nAS ([dD][Cha]F[dS][dR]YL[2Nal]S) [AE109] | – | – | 0.00205 s⁻¹ | 14.6 | – | – |
| eChaFsYYLWS ([dE][Cha]F[dS]YYLWS) [AE115] | – | – | 0.00167 s⁻¹ | 11.9 | – | – |
| eChaFsyYLWS ([dE][Cha]F[dS][dY]YLWS) [AE100] | – | – | 0.00056 s⁻¹ | 4.0 | – | – |
| tChaFsrYLWS ([dT][Cha]F[dS][dR]YLWS) [AE108] | – | – | 0.00048 s⁻¹ | 3.4 | – | – |
| SLNFSQYLWS [AE68] | 92.1 | 0.0129 | – | – | – | – |
| D[Cha]F[dS][dR]GYLWS (not fully specified) [AE116] | > 100 | – | – | – | – | – |
| LNF[dS]QYLWS [AE111] | 7.5 | 0.00105 | – | – | – | – |
| DXFSRYLWS (beta-cyclohexyl-L-alanine (Cha) at 2; D-Ser at 4) [AE110] | 2 | 0.00028 | – | – | – | – |
| D[Cha]F[dS][dR]YL[1Nal]S [AE114] | 4.2 | 0.00059 | – | – | – | – |
| [dE][Cha]F[dS]YYLWS [AE115] | 11.9 | 0.00167 | – | – | – | – |
| DXFSRYLWS (D-Asp at 1; beta-cyclohexyl-L-alanine (Cha) at 2; D-Arg at 5) [AE107] | 63.1 | 0.00884 | – | – | – | – |
| DXFSRYLWS (beta-cyclohexyl-L-alanine (Cha) at 2; D-Arg at 5) [AE106] | 18.7 | 0.00263 | – | – | – | – |
| SL[Cha]F[dS]QYLWS [Lcha] | 24.9 | 0.00349 | – | – | – | – |
| D[Cha]F[dS][dR][βAla]YLWS (not fully specified; printed as DChaFsrβAYLWS) [AE117] | > 100 | – | – | – | – | – |
